Results taken from article PMC9076686, “Calcium bursts allow rapid reorganization of EFhD2/Swip-1 cross-linked actin networks in epithelial wound closure” (Nature Communications, 2022).

Key:
[1] = target: T1, Actin from rabbit skeletal muscle (F-actin) (rabbit, UniProt P68135 1-377); experiment: co-sedimentation; high-speed pelleting at 200,000 x g, 4 °C, 1 h; 8 µM G-actin polymerised with increasing Swip-1 in 1x KMEI (10 mM imidazole pH 7.0, 50 mM KCl, 1 mM MgCl2, 1 mM EGTA) for 2 h at 4 °C; absence of calcium; fit to independent, identical binding sites; details: both partners purified
[2] = target: T1, Actin from rabbit skeletal muscle …; experiment: co-sedimentation; high-speed pelleting at 200,000 x g, 4 °C, 1 h; 8 µM G-actin polymerised with increasing Swip-1 in 1x KMI (10 mM imidazole pH 7.0, 50 mM KCl, 1 mM MgCl2) with 1 mM CaCl2 for 2 h at 4 °C; presence of calcium; fit to independent, identical binding sites; details: both partners purified

- Kd [1]: 4.3 ± 1.3 µM
- stoichiometry N [1]: ~1 Swip-1:actin
- Kd [2]: 0.9 ± 0.1 µM
- stoichiometry N [2]: ~0.5 Swip-1:actin
B1: Drosophila Swip-1 (EFhD2/Swip-1), recombinant wild type (natural protein)
chain: MSVSSNASSASNKDSVDSPSSTTNTDSSELTHILNRRQEIMESQEAGIEVRRTYKVVNVYTDFPEFSRNQIKDYQKTFNTYDTARDGFLDLQELKFMMEKLGAPQTHLGLKQMIAEVDEDNDGKISFREFLLIFRKAQAGELDSDSGLNQLARLTEVDVEQVGVSGAKNFFEAKIEQQLRTNKFHDEIRAEQEERRREEEERAQRRQQFQQRAAIFQ
notes: residues left after PreScission cleavage are not described; source: E. coli Rossetta 2, purified (glutathione agarose, GST cleaved by PreScission protease, size-exclusion chromatography)
